How the values were obtained:
[1] = biological target: T1, human CD1a expressed on cells (human, UniProt P06126 17-327); assay: cell-based or functional assay
[2] = biological target: T1, human CD1a expressed on cells; assay: cell-based or functional assay; remark: listed apart in the source
Human C1q = biological target: T2, Human C1q (human, UniProt P02745 23-245; P02746 28-253; P02747 29-245); assay: in vitro human C1q binding assay
T2 construct: Source and form of C1q not described; also called Clq
T2 sequence (P02745 23-245 limits assumed, chain 1 of 3): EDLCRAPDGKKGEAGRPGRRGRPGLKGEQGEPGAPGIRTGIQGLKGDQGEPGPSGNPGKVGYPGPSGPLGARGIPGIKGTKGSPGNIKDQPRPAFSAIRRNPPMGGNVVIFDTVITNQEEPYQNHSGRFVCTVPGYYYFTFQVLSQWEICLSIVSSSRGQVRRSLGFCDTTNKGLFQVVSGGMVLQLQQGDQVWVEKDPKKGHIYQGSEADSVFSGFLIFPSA
T2 sequence (P02746 28-253 limits assumed, chain 2 of 3): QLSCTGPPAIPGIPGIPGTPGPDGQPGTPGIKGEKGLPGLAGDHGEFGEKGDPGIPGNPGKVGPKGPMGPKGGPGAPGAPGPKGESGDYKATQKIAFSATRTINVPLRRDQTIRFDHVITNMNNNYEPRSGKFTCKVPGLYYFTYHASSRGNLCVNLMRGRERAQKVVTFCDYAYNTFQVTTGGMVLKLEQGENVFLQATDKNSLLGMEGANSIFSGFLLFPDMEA
T2 sequence (P02747 29-245 limits assumed, chain 3 of 3): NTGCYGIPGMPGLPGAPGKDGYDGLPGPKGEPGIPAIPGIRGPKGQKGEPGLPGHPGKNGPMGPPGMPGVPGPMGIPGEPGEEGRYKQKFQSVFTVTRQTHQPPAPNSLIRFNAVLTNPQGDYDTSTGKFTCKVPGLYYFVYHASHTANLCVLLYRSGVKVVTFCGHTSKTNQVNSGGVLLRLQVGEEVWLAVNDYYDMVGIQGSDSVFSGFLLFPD

[3] = biological target: T3, human single-chain CD1a-β2M recombinant protein (Human B2M-CD1a ECD-Avi-His6) (human); assay: SPR (Biacore), IgG; antigen taken as human CD1a
T3 construct: Biotinylated in the HTRF, phage selection and Gyrolab assays; also called human CD1a; CD1a protein

[4] = biological target: Human CD1b (recombinant; Human B2M-CD1b ECD-His6) (human); assay: ELISA, plates coated with recombinant CD1b, titrated Ab571
Sequence of Human CD1b (recombinant; Human B2M-CD1b ECD-His6) (human) (chain, as listed by the source limits assumed): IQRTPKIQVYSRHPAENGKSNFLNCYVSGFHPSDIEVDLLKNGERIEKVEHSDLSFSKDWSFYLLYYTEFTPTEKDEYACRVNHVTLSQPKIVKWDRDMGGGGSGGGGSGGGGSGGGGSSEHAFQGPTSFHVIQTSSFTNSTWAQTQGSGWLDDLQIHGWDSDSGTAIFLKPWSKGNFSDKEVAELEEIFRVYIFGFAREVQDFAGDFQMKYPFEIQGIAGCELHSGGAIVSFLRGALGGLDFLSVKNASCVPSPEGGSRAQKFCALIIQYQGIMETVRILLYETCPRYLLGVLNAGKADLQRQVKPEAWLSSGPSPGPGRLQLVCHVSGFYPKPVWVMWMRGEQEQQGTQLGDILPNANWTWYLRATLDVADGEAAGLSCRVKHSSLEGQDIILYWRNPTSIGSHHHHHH

[5] = biological target: Human CD1c (recombinant; Human B2M-CD1c ECD-His6) (human); assay: ELISA, plates coated with recombinant CD1c, titrated Ab571
Sequence of Human CD1c (recombinant; Human B2M-CD1c ECD-His6) (human) (chain, as listed by the source limits assumed): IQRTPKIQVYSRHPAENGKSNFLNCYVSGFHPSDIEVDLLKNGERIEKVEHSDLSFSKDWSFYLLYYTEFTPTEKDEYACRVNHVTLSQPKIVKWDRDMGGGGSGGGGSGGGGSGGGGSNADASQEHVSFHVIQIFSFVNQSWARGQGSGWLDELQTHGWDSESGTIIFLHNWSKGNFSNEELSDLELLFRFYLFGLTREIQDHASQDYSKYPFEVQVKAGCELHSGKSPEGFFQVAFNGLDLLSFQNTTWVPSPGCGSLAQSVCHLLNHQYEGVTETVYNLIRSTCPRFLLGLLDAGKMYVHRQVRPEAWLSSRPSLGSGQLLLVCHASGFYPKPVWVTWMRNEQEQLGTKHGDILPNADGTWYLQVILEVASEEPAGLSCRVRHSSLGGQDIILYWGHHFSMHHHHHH

[6] = biological target: Human CD1d (recombinant; Human B2M-CD1d ECD-His6) (human); assay: ELISA, plates coated with recombinant CD1d, titrated Ab571
Sequence of Human CD1d (recombinant; Human B2M-CD1d ECD-His6) (human) (chain, as listed by the source limits assumed): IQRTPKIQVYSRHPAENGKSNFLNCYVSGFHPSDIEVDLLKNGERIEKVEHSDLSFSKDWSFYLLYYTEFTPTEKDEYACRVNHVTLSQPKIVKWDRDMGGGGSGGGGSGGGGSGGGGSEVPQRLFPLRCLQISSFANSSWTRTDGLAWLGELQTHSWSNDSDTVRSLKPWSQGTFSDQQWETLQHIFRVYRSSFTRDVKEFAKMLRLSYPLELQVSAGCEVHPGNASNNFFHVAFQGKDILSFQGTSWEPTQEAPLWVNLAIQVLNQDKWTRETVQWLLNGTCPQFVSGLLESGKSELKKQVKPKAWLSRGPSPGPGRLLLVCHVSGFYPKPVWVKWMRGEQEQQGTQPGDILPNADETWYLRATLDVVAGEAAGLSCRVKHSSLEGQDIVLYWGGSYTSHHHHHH

[7] = biological target: T3, human single-chain CD1a-β2M recombinant …; assay: ELISA, plates coated with recombinant human CD1a, titrated Ab571
[8] = biological target: T3, human single-chain CD1a-β2M recombinant …; assay: Surface Plasmon Resonance (summary table; same experiment as Table 7)
[9] = biological target: T4, cynomolgus CD1a-β2M recombinant protein (Cyno B2M-CD1a ECD-Avi-His6) (cynomolgus monkey); assay: as above
T4 construct: also called cyno CD1a; cynomolgus monkey CD1a
T4 chain: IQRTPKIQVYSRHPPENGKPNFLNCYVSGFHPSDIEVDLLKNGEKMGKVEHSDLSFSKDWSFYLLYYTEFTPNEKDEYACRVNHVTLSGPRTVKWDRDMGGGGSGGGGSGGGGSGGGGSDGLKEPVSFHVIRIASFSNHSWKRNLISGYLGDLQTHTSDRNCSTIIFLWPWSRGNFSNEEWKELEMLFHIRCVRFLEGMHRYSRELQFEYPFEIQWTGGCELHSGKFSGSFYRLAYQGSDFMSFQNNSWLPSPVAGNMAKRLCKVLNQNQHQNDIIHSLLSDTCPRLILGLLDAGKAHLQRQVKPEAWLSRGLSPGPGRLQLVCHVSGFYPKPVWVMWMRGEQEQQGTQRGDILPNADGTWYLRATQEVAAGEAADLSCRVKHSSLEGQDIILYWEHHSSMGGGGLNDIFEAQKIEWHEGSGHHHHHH

[10] = biological target: T4, cynomolgus CD1a-β2M recombinant protein …; assay: SPR (Biacore 8K, 37 °C), Ab571 captured by anti-human Fc, cyno CD1a as analyte, 1:1 Langmuir fit
[11] = biological target: T3, human single-chain CD1a-β2M recombinant …; assay: SPR (Biacore 8K, 37 °C), Ab571 captured by anti-human Fc, human CD1a as analyte, 1:1 Langmuir fit
[12] = biological target: T1, human CD1a expressed on cells; assay: flow cytometry, AF-647-conjugated Ab571 on primary human monocyte-derived dendritic cells; average
[13] = biological target: T4, cynomolgus CD1a-β2M recombinant protein …; assay: SPR (Biacore 8K, 37 °C), Ab571 captured by anti-human Fc, cyno CD1a as analyte, 1:1 Langmuir fit; mean ± SD, n = 6
[14] = biological target: T3, human single-chain CD1a-β2M recombinant …; assay: SPR (Biacore 8K, 37 °C), Ab571 captured by anti-human Fc, human CD1a as analyte, 1:1 Langmuir fit; mean ± SD, n = 6

T1 sequence (P06126 17-327): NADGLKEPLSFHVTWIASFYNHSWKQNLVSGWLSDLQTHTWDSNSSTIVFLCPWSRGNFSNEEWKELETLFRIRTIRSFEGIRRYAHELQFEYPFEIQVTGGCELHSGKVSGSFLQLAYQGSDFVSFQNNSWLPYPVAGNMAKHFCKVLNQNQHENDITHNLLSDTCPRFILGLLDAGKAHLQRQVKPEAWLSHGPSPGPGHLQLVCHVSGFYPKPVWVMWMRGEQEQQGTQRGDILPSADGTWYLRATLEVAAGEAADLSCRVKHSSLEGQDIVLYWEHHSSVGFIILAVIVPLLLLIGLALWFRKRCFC

- Inhibition of CD69 expression, IC50 [1]: 1110 pM
- Human Jurkat T cell Activation: IC50 CD69 Expression [2]: 894 pM
- Human Jurkat T cell Activation: IC50 IL-2 [2]: 268 pM
- Kd [3]: 170 pM
- binding result [4]: no binding
- binding result [5]: no binding
- binding result [6]: no binding
- EC50 [7]: 6.52 pM
- Kd [8]: 181 pM
- Kd [9]: 60 pM
- koff [10]: 9.8e-05 s⁻¹
- kon [10]: 1.64e+06 M⁻¹ s⁻¹
- koff [11]: 0.000228 s⁻¹
- kon [11]: 1.26e+06 M⁻¹ s⁻¹
- EC50 [12]: 7830 pM
- Kd [13]: 60.4 pM
- Kd [14]: 181 pM
B1: Ab571 (antibody, human IgG1, kappa)
heavy: EVQLVESGGGLVQPGGSLRLSCAASGFTFTDHYMTWVRQAPGKGLEWVAFIRNKAGGYTTESNPAVKGRFTISRDNAKNSLYLQMNSLRAEDTAVYYCARETTGIPTGWFAYWGQGTLVTVSSASTKGPSVFPLAPSSKSTSGGTAALGCLVKDYFPEPVTVSWNSGALTSGVHTFPAVLQSSGLYSLSSVVTVPSSSLGTQTYICNVNHKPSNTKVDKKVEPKSCDKTHTCPPCPAPEAAGAPSVFLFPPKPKDTLMISRTPEVTCVVVDVSHEDPEVKFNWYVDGVEVHNAKTKPREEQYNSTYRVVSVLTVLHQDWLNGKEYKCKVSNKALPAPIEKTISKAKGQPREPQVYTLPPSREEMTKNQVSLTCLVKGFYPSDIAVEWESNGQPENNYKTTPPVLDSDGSFFLYSKLTVDKSRWQQGNVFSCSVMHEALHNHYTQKSLSLSPGK
light: DIQMTQSPSSLSASVGDRVTITCLASEDIYFDLAWYQQKPGKAPKLLIYGGDRLKEGVPSRFSGSGSGTDYTLTISSLQPEDFATYYCQQSYSYPYTFGQGTKLEIKRTVAAPSVFIFPPSDEQLKSGTASVVCLLNNFYPREAKVQWKVDNALQSGNSQESVTEQDSKDSTYSLSSTLTLSKADYEKHKVYACEVTHQGLSSPVTKSFNRGEC
notes: Lead optimized variant of Ab138; human IgG1 effector null / kappa; HC with or without terminal lysine; Used AF-647- or FITC-conjugated in the dendritic cell flow cytometry assays; also called FITC-Ab571; AF-647-conjugated Ab571
- binding result (Human C1q): no binding (tested: Up to 30 µg/mL (C1q))

Source: patent US20220112291A1 (Pfizer, published 2022)
